The subject of the experiment is (CTA)12/(TAG)12 36-mer DNA duplex. The experiment is described as follows: In vitro DNA methylation assay of DIM2 (WT or mutant). It counts as biochemical. Details: DNA methylation activity: unit not given here. The note with it: 30 min, pH 8.0; for DNA methylation activity of DIM2 (in words): 1.0 µM DIM2, 30 °C; for DNA methylation activity: Fig. 6d, H3_1-24K9me3 binding-associated mutants, 1.0 µM DIM2, 1.0 µM DNA duplex, 30 °C.

B1: DIM2W261A/W581A: DIM2 with W261A/W581A double mutation (protein)
chain: MDSPDRSHGGMFIDVPAETMGFQEDYLDMFASVLSQGLAKEGDYAHHQPLPAGKEECLEPIAVATTITPSPDDPQLQLQLELEQQFQTESGLNGVDPAPAPESEDEADLPDGFSDESPDDDFVVQRSKHITVDLPVSTLINPRSTFQRIDENDNLVPPPQSTPERVAVEDLLKAAKAAGKNKEDYIEFELHDFNFYVNYAYHPQEMRPIQLVATKVLHDKYYFDGVLKYGNTKHYVTGMQVLELPVGNYGASLHSVKGQIAVRSKHNAKKEIYYLLKKPAFEYQRYYQPFLWIADLGKHVVDYCTRMVERKREVTLGCFKSDFIQWASKAHGKSKAFQNWRAQHPSDDFRTSVAANIGYIWKEINGVAGAKRAAGDQLFRELMIVKPGQYFRQEVPPGPVVTEGDRTVAATIVTPYIKECFGHMILGKVLRLAGEDAEKEKEVKLAKRLKIENKNATKADTKDDMKNDTATESLPTPLRSLPVQVLEATPIESDIVSIVSSDLPPSENNPPPLTNGSVKPKAKANPKPKPSTQPLHAAHVKYLSQELVNKIKVGDVISTPRDDSSNTDTKWKPTDTDDHRAFGLVQRVHTAKTKSSGRGLNSKSFDVIWFYRPEDTPCCAMKYKWRNELFLSNHCTCQEGHHARVKGNEVLAVHPVDWFGTPESNKGEFFVRQLYESEQRRWITLQKDHLTCYHNQPPKPPTAPYKPGDTVLATLSPSDKFSDPYEVVEYFTQGEKETAFVRLRKLLRRRKVDRQDAPANELVYTEDLVDVRAERIVGKCIMRCFRPDERVPSPYDRGGTGNMFFITHRQDHGRCVPLDTLPPTLRQGFNPLGNLGKPKLRGMDLYCGGGNFGRGLEEGGVVEMRWANDIWDKAIHTYMANTPDPNKTNPFLGSVDDLLRLALEGKFSDNVPRPGEVDFIAAGSPCPGFSLLTQDKKVLNQVKNQSLVASFASFVDFYRPKYGVLENVSGIVQTFVNRKQDVLSQLFCALVGMGYQAQLILGDAWAHGAPQSRERVFLYFAAPGLPLPDPPLPSHSHYRVKNRNIGFLCNGESYVQRSFIPTAFKFVSAGEGTADLPKIGDGKPDACVRFPDHRLASGITPYIRAQYACIPTHPYGMNFIKAWNNGNGVMSKSDRDLFPSEGKTRTSDASVGWKRLNPKTLFPTVTTTSNPSDARMGPGLHWDEDRPYTVQEMRRAQGYLDEEVLVGRTTDQWKLVGNSVSRHMALAIGLKFREAWLGTLYD
modifications: left off: His6, N-terminal, cleaved | MBP, N-terminal, cleaved
notes: DIM2 with W261A/W581A double mutation
For the molecule B1, the “DNA methylation activity of DIM2 (in words)” value is recorded as “largely abolished the DNA methylation activity”. This molecule also returned a DNA methylation activity (replicate 1) of 0.373. Under “replicate 2”, the DNA methylation activity amounted to 0.344. Besides, the DNA methylation activity (replicate 3) was determined as 0.323.

B2: DIM2N1050A: DIM2 with mutation in the bridging loop (N1050A) (protein)
chain: MDSPDRSHGGMFIDVPAETMGFQEDYLDMFASVLSQGLAKEGDYAHHQPLPAGKEECLEPIAVATTITPSPDDPQLQLQLELEQQFQTESGLNGVDPAPAPESEDEADLPDGFSDESPDDDFVVQRSKHITVDLPVSTLINPRSTFQRIDENDNLVPPPQSTPERVAVEDLLKAAKAAGKNKEDYIEFELHDFNFYVNYAYHPQEMRPIQLVATKVLHDKYYFDGVLKYGNTKHYVTGMQVLELPVGNYGASLHSVKGQIWVRSKHNAKKEIYYLLKKPAFEYQRYYQPFLWIADLGKHVVDYCTRMVERKREVTLGCFKSDFIQWASKAHGKSKAFQNWRAQHPSDDFRTSVAANIGYIWKEINGVAGAKRAAGDQLFRELMIVKPGQYFRQEVPPGPVVTEGDRTVAATIVTPYIKECFGHMILGKVLRLAGEDAEKEKEVKLAKRLKIENKNATKADTKDDMKNDTATESLPTPLRSLPVQVLEATPIESDIVSIVSSDLPPSENNPPPLTNGSVKPKAKANPKPKPSTQPLHAAHVKYLSQELVNKIKVGDVISTPRDDSSNTDTKWKPTDTDDHRWFGLVQRVHTAKTKSSGRGLNSKSFDVIWFYRPEDTPCCAMKYKWRNELFLSNHCTCQEGHHARVKGNEVLAVHPVDWFGTPESNKGEFFVRQLYESEQRRWITLQKDHLTCYHNQPPKPPTAPYKPGDTVLATLSPSDKFSDPYEVVEYFTQGEKETAFVRLRKLLRRRKVDRQDAPANELVYTEDLVDVRAERIVGKCIMRCFRPDERVPSPYDRGGTGNMFFITHRQDHGRCVPLDTLPPTLRQGFNPLGNLGKPKLRGMDLYCGGGNFGRGLEEGGVVEMRWANDIWDKAIHTYMANTPDPNKTNPFLGSVDDLLRLALEGKFSDNVPRPGEVDFIAAGSPCPGFSLLTQDKKVLNQVKNQSLVASFASFVDFYRPKYGVLENVSGIVQTFVNRKQDVLSQLFCALVGMGYQAQLILGDAWAHGAPQSRERVFLYFAAPGLPLPDPPLPSHSHYRVKNRNIGFLCAGESYVQRSFIPTAFKFVSAGEGTADLPKIGDGKPDACVRFPDHRLASGITPYIRAQYACIPTHPYGMNFIKAWNNGNGVMSKSDRDLFPSEGKTRTSDASVGWKRLNPKTLFPTVTTTSNPSDARMGPGLHWDEDRPYTVQEMRRAQGYLDEEVLVGRTTDQWKLVGNSVSRHMALAIGLKFREAWLGTLYD
modifications: left off: His6, N-terminal, cleaved | MBP, N-terminal, cleaved
For the molecule B2, the “DNA methylation activity of DIM2 (in words)” value is “marked decrease of the DNA methylation activity”. For the same molecule, under “replicate 1”, the DNA methylation activity is 5.118. In addition, the DNA methylation activity (replicate 2) was 5.385. Further, the DNA methylation activity (replicate 3) came out at 5.072.

B3: DIM2E649A: DIM2 with mutation in the BAH1 domain (E649A) (protein)
chain: MDSPDRSHGGMFIDVPAETMGFQEDYLDMFASVLSQGLAKEGDYAHHQPLPAGKEECLEPIAVATTITPSPDDPQLQLQLELEQQFQTESGLNGVDPAPAPESEDEADLPDGFSDESPDDDFVVQRSKHITVDLPVSTLINPRSTFQRIDENDNLVPPPQSTPERVAVEDLLKAAKAAGKNKEDYIEFELHDFNFYVNYAYHPQEMRPIQLVATKVLHDKYYFDGVLKYGNTKHYVTGMQVLELPVGNYGASLHSVKGQIWVRSKHNAKKEIYYLLKKPAFEYQRYYQPFLWIADLGKHVVDYCTRMVERKREVTLGCFKSDFIQWASKAHGKSKAFQNWRAQHPSDDFRTSVAANIGYIWKEINGVAGAKRAAGDQLFRELMIVKPGQYFRQEVPPGPVVTEGDRTVAATIVTPYIKECFGHMILGKVLRLAGEDAEKEKEVKLAKRLKIENKNATKADTKDDMKNDTATESLPTPLRSLPVQVLEATPIESDIVSIVSSDLPPSENNPPPLTNGSVKPKAKANPKPKPSTQPLHAAHVKYLSQELVNKIKVGDVISTPRDDSSNTDTKWKPTDTDDHRWFGLVQRVHTAKTKSSGRGLNSKSFDVIWFYRPEDTPCCAMKYKWRNELFLSNHCTCQEGHHARVKGNAVLAVHPVDWFGTPESNKGEFFVRQLYESEQRRWITLQKDHLTCYHNQPPKPPTAPYKPGDTVLATLSPSDKFSDPYEVVEYFTQGEKETAFVRLRKLLRRRKVDRQDAPANELVYTEDLVDVRAERIVGKCIMRCFRPDERVPSPYDRGGTGNMFFITHRQDHGRCVPLDTLPPTLRQGFNPLGNLGKPKLRGMDLYCGGGNFGRGLEEGGVVEMRWANDIWDKAIHTYMANTPDPNKTNPFLGSVDDLLRLALEGKFSDNVPRPGEVDFIAAGSPCPGFSLLTQDKKVLNQVKNQSLVASFASFVDFYRPKYGVLENVSGIVQTFVNRKQDVLSQLFCALVGMGYQAQLILGDAWAHGAPQSRERVFLYFAAPGLPLPDPPLPSHSHYRVKNRNIGFLCNGESYVQRSFIPTAFKFVSAGEGTADLPKIGDGKPDACVRFPDHRLASGITPYIRAQYACIPTHPYGMNFIKAWNNGNGVMSKSDRDLFPSEGKTRTSDASVGWKRLNPKTLFPTVTTTSNPSDARMGPGLHWDEDRPYTVQEMRRAQGYLDEEVLVGRTTDQWKLVGNSVSRHMALAIGLKFREAWLGTLYD
modifications: left off: His6, N-terminal, cleaved | MBP, N-terminal, cleaved
As for B3, the “DNA methylation activity of DIM2 (in words)” value was “marked decrease of the DNA methylation activity”. The molecule further showed a DNA methylation activity (replicate 1) of 3.26. Besides, for the setting “replicate 2”, the DNA methylation activity came out at 3.183. In addition, the DNA methylation activity (replicate 3) was determined as 3.28.

B4: DIM2K362A: DIM2 with H3K9me3-binding site mutation in the RFTS domain (K362A) (protein)
chain: MDSPDRSHGGMFIDVPAETMGFQEDYLDMFASVLSQGLAKEGDYAHHQPLPAGKEECLEPIAVATTITPSPDDPQLQLQLELEQQFQTESGLNGVDPAPAPESEDEADLPDGFSDESPDDDFVVQRSKHITVDLPVSTLINPRSTFQRIDENDNLVPPPQSTPERVAVEDLLKAAKAAGKNKEDYIEFELHDFNFYVNYAYHPQEMRPIQLVATKVLHDKYYFDGVLKYGNTKHYVTGMQVLELPVGNYGASLHSVKGQIWVRSKHNAKKEIYYLLKKPAFEYQRYYQPFLWIADLGKHVVDYCTRMVERKREVTLGCFKSDFIQWASKAHGKSKAFQNWRAQHPSDDFRTSVAANIGYIWAEINGVAGAKRAAGDQLFRELMIVKPGQYFRQEVPPGPVVTEGDRTVAATIVTPYIKECFGHMILGKVLRLAGEDAEKEKEVKLAKRLKIENKNATKADTKDDMKNDTATESLPTPLRSLPVQVLEATPIESDIVSIVSSDLPPSENNPPPLTNGSVKPKAKANPKPKPSTQPLHAAHVKYLSQELVNKIKVGDVISTPRDDSSNTDTKWKPTDTDDHRWFGLVQRVHTAKTKSSGRGLNSKSFDVIWFYRPEDTPCCAMKYKWRNELFLSNHCTCQEGHHARVKGNEVLAVHPVDWFGTPESNKGEFFVRQLYESEQRRWITLQKDHLTCYHNQPPKPPTAPYKPGDTVLATLSPSDKFSDPYEVVEYFTQGEKETAFVRLRKLLRRRKVDRQDAPANELVYTEDLVDVRAERIVGKCIMRCFRPDERVPSPYDRGGTGNMFFITHRQDHGRCVPLDTLPPTLRQGFNPLGNLGKPKLRGMDLYCGGGNFGRGLEEGGVVEMRWANDIWDKAIHTYMANTPDPNKTNPFLGSVDDLLRLALEGKFSDNVPRPGEVDFIAAGSPCPGFSLLTQDKKVLNQVKNQSLVASFASFVDFYRPKYGVLENVSGIVQTFVNRKQDVLSQLFCALVGMGYQAQLILGDAWAHGAPQSRERVFLYFAAPGLPLPDPPLPSHSHYRVKNRNIGFLCNGESYVQRSFIPTAFKFVSAGEGTADLPKIGDGKPDACVRFPDHRLASGITPYIRAQYACIPTHPYGMNFIKAWNNGNGVMSKSDRDLFPSEGKTRTSDASVGWKRLNPKTLFPTVTTTSNPSDARMGPGLHWDEDRPYTVQEMRRAQGYLDEEVLVGRTTDQWKLVGNSVSRHMALAIGLKFREAWLGTLYD
modifications: left off: His6, N-terminal, cleaved | MBP, N-terminal, cleaved
Consider B4, for which the “DNA methylation activity of DIM2 (in words)” value was “marked decrease of the DNA methylation activity”. For the same molecule, the DNA methylation activity (replicate 1) came to 1.971. Also, the DNA methylation activity (replicate 2) worked out at 1.588. The molecule also returned a DNA methylation activity (replicate 3) of 1.581.

Source of the values: paper PMC11315935, “Multi-layered heterochromatin interaction as a switch for DIM2-mediated DNA methylation” (Nature Communications, 2024).
